Patent US20240182582A1

How the values were obtained:
[1] = molecular target: NKG2d (NKG2-D type II integral membrane protein) on NKL cells / NK cells (human) (UniProt P26718); assay: flow cytometry on NKL cells, secondary antibody alone without primary antibody (background control), column 60 nM
[2] = molecular target: NKG2d (NKG2-D type II integral membrane protein) on NKL cells / NK cells (human) (UniProt P26718); assay: flow cytometry on NKL cells, secondary antibody alone without primary antibody (background control), column 0.6 nM
[3] = molecular target: NKG2d (NKG2-D type II integral membrane protein) on NKL cells / NK cells (human) (UniProt P26718); assay: flow cytometry on NKL cells, secondary antibody alone without primary antibody (background control), column 6 nM

NKG2d (NKG2-D type II integral membrane protein) on NKL cells / NK cells (human), sequence (P26718 whole entry): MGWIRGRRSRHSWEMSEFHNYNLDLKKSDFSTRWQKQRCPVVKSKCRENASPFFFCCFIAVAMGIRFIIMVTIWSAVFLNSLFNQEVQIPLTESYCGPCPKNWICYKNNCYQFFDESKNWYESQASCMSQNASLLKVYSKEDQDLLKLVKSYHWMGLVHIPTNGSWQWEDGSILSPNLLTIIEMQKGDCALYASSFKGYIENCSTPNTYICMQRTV

geomean fluorescence [1]: 63.8
geomean fluorescence [2]: 92.6
geomean fluorescence [3]: 115
Substance: secondary antibody only (Goat anti hu-Fc AF647)
